The record followed here is patent US20100004325.

Series [1] addresses T1, F-N803 peptide (FITC-labeled HIF-1α 788-822 peptide).
T1 chain: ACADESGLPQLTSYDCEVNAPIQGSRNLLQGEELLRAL

In series [2] the target is T2, B-P564 peptide (biotin-labeled HIF-1α 556-575 peptide).
T2 chain: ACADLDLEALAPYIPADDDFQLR

B1: His-FIH1 (human factor inhibiting HIF1, amino acids 1-349) (protein)
chain: MAATAAEAVASGSGEPREEAGALGPAWDESQLRSYSFPTRPIPRLSQSDPRAEELIENEEPVVLTDTNLVYPALKWDLEYLQENIGNGDFSVYSASTHKFLYYDEKKMANFQNFKPRSNREEMKFHEFVEKLQDIQQRGGEERLYLQQTLNDTVGRKIVMDFLGFNWNWINKQQGKRGWGQLTSNLLLIGMEGNVTPAHYDEQQNFFAQIKGYKRCILFPPDQFECLYPYPVHHPCDRQSQVDFDNPDYERFPNFQNVVGYETVVGPGDVLYIPMYWWHHIESLLNGGITITVNFWYKGAPTPKRIEYPLKAHQKVAIMRNIEKMLGEALGNPQEVGPLLNTMIKGRYN
On to B1, for which, in series [1], the “asparagine hydroxylation of the peptide, MALDI mass spectrometry” value is “The asparagine residue was hydroxylated in the baicalein-free reactant”.

B2: GST-PHD2 (human prolyl hydroxylase 2, amino acids 184-426) (protein)
chain: QTKPLPALKLALEYIVPCMNKHGICVVDDFLGKETGQQIGDEVRALHDTGKFTDGQLVSQKSDSSKDIRGDKITWIEGKEPGCETIGLLMSSMDDLIRHCNGKLGSYKINGRTKAMVACYPGNGTGYVRHVDNPNGDGRCVTCIYYLNKDWDAKVSGGILRIFPEGKAQFADIEPKFDRLLFFWSDRRNPHEVQPAYATRYAITVWYFDADERARAKVKYLTGEKGVRVELNKPSDSVGKDVF
As to B2, the “proline hydroxylation of the peptide, MALDI mass spectrometry” value in series [2] was “The proline residue was hydroxylated in the baicalein-free reactant”.
